Measured values from patent publication US20260308536A1, “NOVEL URICASE VARIANTS AND METHODS OF USE THEREOF” (priority 2023, published 2026).

Experiments:
Assay type in all cases: biochemical, Aspergillus flavus
[1] = system: O=c1[nH]c(=O)c2[nH]c(=O)[nH]c2[nH]1; experiment: Michaelis-Menten kinetics, RasU_D12-A56T; conditions: other: role: substrate; RasU_D12-A56T (SEQ ID NO: 267); pH 10.5; 25.0 °C
Source text: (§1) Select Aspergillus flavus uricase variants RasU_D12, as well as its subvariants RasU_D12-A56T, and RasU_D12-W160E; and RasU_D8, as well as its subvariants RasU_D8-T33V, RasU_D8-Y65H, RasU_D8-W160E, RasU_D8-A209N, and RasU_D8-T210K were subject to further characterization by comparing their expression yields, Michaelis-Menten kinetics parameters, and thermostability measured by temperatures at which 50% of normal activity was lost determined by heat stress activity assay, with those of the wild type Aspergillus flavus uricase. As the names of the subvariants indicated, the subvariants of RasU_D12 were constructed by introducing an additional amino acid substitution A56T or W160E into the RasU_D12 variant, while the subvariants of RasU_D8 were constructed by introducing an additional amino acid substitution T33V, Y65H, W160E, A209N, or T210K into the RasU_D8 variant. Each of the additional amino acid substitutions was to address residual T cell epitopes in the RasU_D8 or RasU_D12 variant. The expression yields were determined as described above in the “Methods” section. The determination of the Michaelis-Menten kinetics parameters kcat and KM, and the heat stress activity assay were likewise performed using the methods described in Example 1. […]

[2] = system: O=c1[nH]c(=O)c2[nH]c(=O)[nH]c2[nH]1; experiment: Michaelis-Menten kinetics, RasU_D8-W160E; conditions: other: role: substrate; RasU_D8-W160E (SEQ ID NO: 271); pH 10.5; 25.0 °C
Source text: as §1

[3] = system: O=c1[nH]c(=O)c2[nH]c(=O)[nH]c2[nH]1; experiment: Michaelis-Menten kinetics, RasU_D8-Y65H; conditions: other: role: substrate; RasU_D8-Y65H (SEQ ID NO: 270); pH 10.5; 25.0 °C
Source text: as §1

[4] = system: O=c1[nH]c(=O)c2[nH]c(=O)[nH]c2[nH]1; experiment: Michaelis-Menten kinetics, RasU_D8-T33V; conditions: other: role: substrate; RasU_D8-T33V (SEQ ID NO: 269); pH 10.5; 25.0 °C
Source text: as §1

[5] = system: O=c1[nH]c(=O)c2[nH]c(=O)[nH]c2[nH]1; experiment: Michaelis-Menten kinetics, RasU_D8-A209N; conditions: other: role: substrate; RasU_D8-A209N (SEQ ID NO: 272); pH 10.5; 25.0 °C
Source text: as §1

[6] = system: O=c1[nH]c(=O)c2[nH]c(=O)[nH]c2[nH]1; experiment: Michaelis-Menten kinetics, RasU_D12; conditions: other: role: substrate; RasU_D12 (SEQ ID NO: 229); pH 10.5; 25.0 °C
Source text: as §1

[7] = system: O=c1[nH]c(=O)c2[nH]c(=O)[nH]c2[nH]1; experiment: Michaelis-Menten kinetics, RasU_D12-W160E; conditions: other: role: substrate; RasU_D12-W160E (SEQ ID NO: 268); pH 10.5; 25.0 °C
Source text: as §1

[8] = system: O=c1[nH]c(=O)c2[nH]c(=O)[nH]c2[nH]1; experiment: Michaelis-Menten kinetics, RasU_D8-T210K; conditions: other: role: substrate; RasU_D8-T210K (SEQ ID NO: 273); pH 10.5; 25.0 °C
Source text: as §1

[9] = system: O=c1[nH]c(=O)c2[nH]c(=O)[nH]c2[nH]1; experiment: Michaelis-Menten kinetics, RasU_D8; conditions: other: role: substrate; RasU_D8 (SEQ ID NO: 236); pH 10.5; 25.0 °C
Source text: as §1

## Aspergillus flavus uricase variant RasU_D12-A56T (Aspergillus flavus; A230N/A241D/A57T/A97K/E42N/I83E/N101D/S148D/T211K)
[1]
  Km: 1500 ± 600 µM
  kcat: 1.4 ± 0.3 s⁻¹

## Aspergillus flavus uricase variant RasU_D8-W160E (Aspergillus flavus; A230N/A241D/A97K/E42N/I83E/N101D/S148D/V54N/W161E)
[2]
  Km: 600 ± 200 µM
  kcat: 1.2 ± 0.2 s⁻¹

## Aspergillus flavus uricase variant RasU_D8-Y65H (Aspergillus flavus; A230N/A241D/A97K/E42N/I83E/N101D/S148D/V54N/Y66H)
[3]
  Km: 3000 ± 1000 µM
  kcat: 1.7 ± 0.5 s⁻¹

## Aspergillus flavus uricase variant RasU_D8-T33V (Aspergillus flavus; A230N/A241D/A97K/E42N/I83E/N101D/S148D/T34V/V54N)
[4]
  Km: 3000 ± 1000 µM
  kcat: 1.6 ± 0.5 s⁻¹

## Aspergillus flavus uricase variant RasU_D8-A209N (Aspergillus flavus; A210N/A230N/A241D/A97K/E42N/I83E/N101D/S148D/V54N)
[5]
  Km: 1100 ± 300 µM
  kcat: 1.1 ± 0.1 s⁻¹

## Aspergillus flavus uricase variant RasU_D12 (Aspergillus flavus; A230N/A241D/A97K/E42N/I83E/N101D/S148D/T211K)
[6]
  Km: 400 ± 100 µM
  kcat: 1.3 ± 0.1 s⁻¹

## Aspergillus flavus uricase variant RasU_D12-W160E (Aspergillus flavus; A230N/A241D/A97K/E42N/I83E/N101D/S148D/T211K/W161E)
[7]
  Km: 1700 ± 1000 µM
  kcat: 1.7 ± 0.5 s⁻¹

## Aspergillus flavus uricase variant RasU_D8-T210K (Aspergillus flavus; A230N/A241D/A97K/E42N/I83E/N101D/S148D/T211K/V54N)
[8]
  Km: 3000 ± 2000 µM
  kcat: 2.0 ± 0.7 s⁻¹

## Aspergillus flavus uricase variant RasU_D8 (Aspergillus flavus; A230N/A241D/A97K/E42N/I83E/N101D/S148D/V54N)
[9]
  Km: 900 ± 200 µM
  kcat: 0.8 ± 0.1 s⁻¹
